# Source: patent US6060451, “Thrombin inhibitors based on the amino acid sequence of hirudin” (The National Research Council of Canada, dated 2000)
# Non-standard residues stand in square brackets, D forms with d.
# Biological target: human α-thrombin (human, UniProt P00734)
# Assay: inhibition of thrombin-mediated hydrolysis of Tosyl-Gly-Pro-Arg-AMC (fluorogenic amidolytic assay)
row,Binder,Ki
1,Ac-[dF]PR[(CH2)4CO][NH‑CH2‑CH:CH‑CH2‑CO]DFEPIPL-OH [P183 (SEQ ID NO:5)],300 nM
2,Ac-[dF]PR[(CH2)4CO][NH‑CH2‑CH:CH‑CH2‑CO][NH‑CH2‑CH:CH‑CH2‑CO]DFEPIPL-OH [P184 (SEQ ID NO:6) (BCH-1710)],3.5 nM
3,Ac-[dF]PR[(CH2)4CO][NH‑CH2‑CH:CH‑CH2‑CO][NH‑CH2‑CH:CH‑CH2‑CO][NH‑CH2‑CH:CH‑CH2‑CO]DFEPIPL-OH [P185 (SEQ ID NO:7)],3.2 nM
